The values below come from article PMC1802081 (BMC Structural Biology, 2007).

B1: ActR-IIBECD wildtype (activin type IIB receptor ectodomain) (receptor, UniProt P27040 19-137, looked up)
chain: SGRGEAETRECIYYNANWELERTNQSGLERCEGEQDKRLHCYASWRNSSGTIELVKKGCWLDDFNCYDRQECVATEENPQVYFCCCEGNFCNERFTHLPEPGGPEVTYEPPPTAPTLLT
notes: source: E. coli OrigamiB (DE3), purified (Ni2+-IMAC, thrombin cleavage, anion exchange, RP-HPLC)

Common to all, as to conditions: both partners purified
In assay [1] the target is T1, binary complex BMP-2:BMPR-IAECD (UniProt P12643 283-396; P36894 24-152).
T1 construct: bone morphogenetic protein 2 (BMP-2), mature ligand, as m1; BMP type IA receptor (BMPR-IA), extracellular domain, as m25; also called BMP-2 complexed with BMPR-IAECD; BMP-2:(BMPR-IAECD)2; source: formed from the purified proteins and purified as described [58]; copies: 2 + 2
Kind of assay: ITC; isothermal titration calorimetry, 25°C; who was titrated is not told.

The target in assay [2] is T2, BMP-7 (CHO cells, R&D Systems) (UniProt P18075 293-431, biotin (biotinylated for the biosensor; site not stated)).
T2 construct: bone morphogenetic protein 7 (BMP-7), mature ligand; source: bought: R&D Systems (CHO cells)
T2 sequence (looked up): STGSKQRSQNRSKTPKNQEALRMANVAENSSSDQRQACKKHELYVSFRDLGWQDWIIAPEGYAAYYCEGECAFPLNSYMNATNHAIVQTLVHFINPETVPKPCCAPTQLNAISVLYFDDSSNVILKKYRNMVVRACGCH
Kind of assay: SPR; BIACORE 2000; biotinylated ligand on a streptavidin-modified CM5 chip (about 200 RU); receptor ectodomain as analyte at 1, 2, 3, 5, 10, 20 and 50 uM; HBS500 (10 mM HEPES pH 7.4, 500 mM NaCl, 3.4 mM EDTA, 0.005% P20); apparent KD from the dose dependence of equilibrium binding. In general terms: Surface plasmon resonance follows binding to a sensor surface in real time, without labels.

In assay [3] the target is T2, BMP-7 (CHO cells, R&D Systems). The assay is described as above. The source holds these as a separate data set.
In assay [4] the target is T3, ActR-II receptor ectodomain (UniProt P27037 20-135).
T3 construct: activin receptor type II (ActR-II), extracellular domain; also called ActR-IIECD; source: expressed and purified as described earlier [28]
The assay is described as above.

Assay [5] deals with B1. The assay is described as above.
Assay [6] deals with T3, ActR-II receptor ectodomain. The description is as above. This is another data set of the same source.
Assay [7] concerns the target T4, BMPR-II receptor ectodomain (UniProt Q13873 27-150).
T4 construct: BMP type II receptor (BMPR-II), extracellular domain; also called BMPR-IIECD; source: expressed and purified as described earlier [28]
T4 sequence (looked up): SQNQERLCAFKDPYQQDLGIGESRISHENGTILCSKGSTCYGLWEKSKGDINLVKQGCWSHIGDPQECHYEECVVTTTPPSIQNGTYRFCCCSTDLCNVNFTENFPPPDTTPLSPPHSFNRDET
Described as above.

For assay [8], the target named is B1. The description is as above. The source holds these as a separate data set.
The next assay addresses T5, ActR-IIBECD L61A (UniProt P27040 19-137, L61A).
T5 construct: also called ActR-IIBL61A; source: E. coli OrigamiB (DE3), purified (Ni2+-IMAC, thrombin cleavage, anion exchange, RP-HPLC)
T5 sequence (looked up): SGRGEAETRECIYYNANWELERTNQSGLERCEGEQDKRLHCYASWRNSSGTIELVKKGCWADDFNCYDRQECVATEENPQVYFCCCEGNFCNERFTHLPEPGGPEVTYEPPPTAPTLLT
Described as above.

Another assay deals with T6, ActR-IIBECD L61P (UniProt P27040 19-137, L61P).
T6 construct: also called ActR-IIBL61P; source: E. coli OrigamiB (DE3), purified (Ni2+-IMAC, thrombin cleavage, anion exchange, RP-HPLC)
T6 sequence (looked up): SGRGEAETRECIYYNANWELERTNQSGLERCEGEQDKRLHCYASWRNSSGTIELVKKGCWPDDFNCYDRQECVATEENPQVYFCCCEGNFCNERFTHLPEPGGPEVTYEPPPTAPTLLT
The assay is described as above.

B1 showed a dH in assay [1] of 14 kcal/mol. For the same molecule, the Kd in [2] was determined as 3600 nM; in assay [3], 2800 nM.

B2: activin A (Sf9 cells) (ligand, UniProt P08476 311-426, looked up)
chain: GLECDGKVNICCKKQFFVSFKDIGWNDWIIAPSGYHANYCEGECPSHIAGTSGSSLSFHSTVINHYRMRGHSPFANLKSCCVPTKLRPMSMLYYDDGQNIIKKDIQNMIVEECGCS
modifications: biotin (biotinylated for the biosensor; site not stated)
notes: activin A (dimer of inhibin beta A chains), mature ligand; also called Act-A; source: Sf9 cells [59]
With B2, the Kd was about 250 nM in [4]; 65 nM in assay [5]; 230 nM in assay [6]; 8700 nM in assay [7]; 60 nM in assay [8]; 2000 nM in the assay with ActR-IIBECD L61A. Moreover, in the assay with ActR-IIBECD L61P, the Kd is 180000 nM.
